Results on two molecules are retold here after patent publication US20220313819A1, “COMBINATION THERAPY FOR THE TREATMENT OF SOLID AND HEMATOLOGICAL CANCERS” (Arch Oncology, Inc., priority 2019, published 2022).

For data set [1], the system named is hRBCs. Nature of the data set: Hemagglutination of washed human red blood cells. Format: cell-based. As to the method: Hemagglutination of hRBCs was assessed following incubation of hRBCs with various concentrations of chimeric and humanized VLX4, VLX8, and VLX9 mAbs in vitro essentially as described by Kikuchi et al. Biochem Biophys Res. Commun (2004) 315:912-918. Blood was obtained from healthy donors, diluted (1:50) in PBS/1 mM EDTA/BSA and washed 3 times with PBS/EDTA/BSA. hRBCs were added to U-bottomed 96 well plates with equal volumes of the antibodies (75 μl of each) and incubated for 3 hrs at 37° C. and overnight at 4° C.

The subject of data set [2] is Jurkat cells. The data set can be described thus: Cell death by soluble mAb, annexin V / 7-AAD. Type of data set: cell-based, human. To be noted: 1 μg/ml, 24 hrs. The method, then:
Induction of cell death by soluble anti-CD47 mAbs is measured in vitro (Manna et al. (2003) J. Immunol. 107 (7): 3544-53, Kikuchi et al. Biochem Biophys Res. Commun. 315: 912-8, 2004), Pettersen et al. J. Immuno. 162: 7031-7040, 1999), Manna et al. Cancer Research, 64: 1026-1036, 2004). For the in vitro cell death assay, 1×10^5 transformed human T cells (Jurkat cells) were incubated with soluble humanized VLX4, VLX8, and VLX9 CD47 mAbs (1 μg/ml) for 24 hrs at 37° C. As cell death occurs, mitochondrial membrane potential is decreased, the inner leaflet of the cell membrane is inverted, exposing phosphatidylserines (PS), and propidium iodide (PI) or 7-aminoactinomycin D (7-AAD) is able to incorporate into nuclear DNA. In order to detect these cellular changes, cells were then stained with fluorescently labelled annexin V and PI or 7-aminoactinomycin D (7-AAD) (BD Biosciences) and the signal detected using an Accuri C6 flow cytometer (BD Biosciences). The increase in PS exposure is determined by measuring the percent increase in annexin V signal and the percent of dead cells by measuring the percent increase in PI or 7-AAD signal. Annexin V positive (annexin V^+) or annexin V positive/7-AAD negative (annexin V^+/7-AAD^−) cells are observed in early stages of cell death and annexin V positive/7-AAD positive (annexin V^+/7-AAD^+) cells are dead cells. […]

Data set [3] concerns Jurkat cells. The data set can be described thus: Phagocytosis of tumor cells by human macrophages. Format: cell-based. To be noted: 1 μg/ml mAb. The method, then: Human derived macrophages were derived from leukapheresis of healthy human peripheral blood and incubated in AIM-V media (Life Technologies) for 7-10 days. For the in vitro phagocytosis assay, macrophages were re-plated at a concentration of 1×10^4 cells per well in 100 ul of AIM-V media in a 96-well plate and allowed to adhere for 24 hrs. Once the effector macrophages adhered to the culture dish, the target human cancer cells (Jurkat) were labelled with 1 μM 5(6)-Carboxyfluorescein diacetate N-succinimidyl ester (CFSE; Sigma Aldrich) and added to the macrophage cultures at a concentration of 5×10^4 cells in […] of AIM-V media (5:1 target to effector ratio). VLX4, VLX8, and VLX9 CD47 mAbs (1 μg/ml) were added immediately upon mixture of target and effector cells and allowed to incubate at 37° C. for 2-3 hours. After 2-3 hrs, all non-phagocytosed cells were removed and the remaining cells washed three times with phosphate buffered saline (PBS; Sigma Aldrich). Cells were then trypsinized, collected into microcentrifuge tubes, and incubated in 100 ng of allophycocyanin (APC) labelled CD14 antibodies (BD Biosciences) for 30 minutes, washed once, and analyzed by flow cytometry (Accuri C6; BD Biosciences) for the percentage of CD14^+ cells that were also CFSE^+ indicating complete phagocytosis.

In data set [4] the target is T1, His-CD47 (recombinant human CD47) (Homo sapiens, UniProt Q08722).
T1 construct: His; purchased AcroBiosystems
Nature of the data set: Solid-phase CD47 ELISA at pH 6 or pH 8. Format: binding. To be noted: pH 6.0 versus pH 8.0. The method, then:
Binding by soluble anti-CD47 mAbs to immobilized recombinant human CD47 and to human CD47 expressed on cells was measured in vitro. For the in vitro binding to recombinant CD47, His-CD47 (AcroBiosystems) was adsorbed to high-binding microtiter plates overnight at 4° C. The wells were washed and varying concentrations of anti-CD47 mAbs were added to the wells in buffers with a of either pH 6 or pH 8 for 1 hour. The wells were washed and then incubated with HRP-labelled secondary antibody for 1 hour at pH 6 or pH 8 followed by addition of peroxidase substrate. The apparent affinities were calculated using non-linear fit model (Graphpad Prism).
Background: An ELISA detects its analyte on a solid surface through an enzyme-linked reagent.

B1: VLX9 IgG2 (xi): chimeric VLX9 anti-CD47 mAb, human IgG2 (antibody)
heavy: QVQLQQFGAELAKPGASVQMSCKASGYTFTNYWIHWVKQRPGQGLEWIGYTDPRTDYTEYNQKFKDKATLAADRSSSTAYMRLSSLTSEDSAVYYCAGGGRVGLGYWGHGSSVTVSSASTKGPSVFPLAPCSRSTSESTAALGCLVKDYFPEPVTVSWNSGALTSGVHTFPAVLQSSGLYSLSSVVTVPSSNFGTQTYTCNVDHKPSNTKVDKTVERKCCVECPPCPAPPVAGPSVFLFPPKPKDTLMISRTPEVTCVVVDVSHEDPEVQFNWYVDGVEVHNAKTKPREEQFNSTFRVVSVLTVVHQDWLNGKEYKCKVSNKGLPAPIEKTISKTKGQPREPQVYTLPPSREEMTKNQVSLTCLVKGFYPSDIAVEWESNGQPENNYKTTPPMLDSDGSFFLYSKLTVDKSRWQQGNVFSCSVMHEALHNHYTQKSLSLSPGK
light: DVFMTQTPLSLPVSLGDQASISCRSSQNIVQSNGNTYLEWYLQKPGQSPKLLIYKVFHRFSGVPDRFSGSGSGTDFTLKISRVEAEDLGVYYCFQGSHVPWTFGGGTKVEIKRTVAAPSVFIFPPSDEQLKSGTASVVCLLNNFYPREAKVQWKVDNALQSGNSQESVTEQDSKDSTYSLSSTLTLSKADYEKHKVYACEVTHQGLSSPVTKSFNRGEC
Take B1: the “HA hRBC” value in data set [1] (hemagglutination, chimeric (xi) mAbs, Table 1) is listed as “Yes”. Also, the “visible hemagglutination of hRBCs” value in data set [1] (result in words, mAb concentrations from 50 μg/ml down) was “caused visible hemagglutination”. Moreover, the “PS exposure and cell death of Jurkat cells (annexin V^+, annexin V^+/7-AAD^−, annexin V^+/7-AAD^+)” value in data set [2] was “induced increased PS exposure and cell death”. Further, the “phagocytosis of Jurkat cells by human macrophages” value in data set [3] was “increased phagocytosis”.

B2: VLX9 IgG (murine): murine VLX9 anti-CD47 antibody (antibody, V domains shown)
VH: QVQLQQFGAELAKPGASVQMSCKASGYTFTNYWIHWVKQRPGQGLEWIGYTDPRTDYTEYNQKFKDKATLAADRSSSTAYMRLSSLTSEDSAVYYCAGGGRVGLGYWGHGSSVTVSS
VL: DVFMTQTPLSLPVSLGDQASISCRSSQNIVQSNGNTYLEWYLQKPGQSPKLLIYKVFHRFSGVPDRFSGSGSGTDFTLKISRVEAEDLGVYYCFQGSHVPWTFGGGTKVEIK
Take B2: the “pH dependent binding to His-CD47” value in data set [4] was “did not display pH dependence”.
